Patent publication US20160053277A1, “Compositions Having Dicamba Decarboxylase Activity and Methods of Use” (PIONEER HI-BRED INTERNATIONAL, INC., priority 2013, published 2016)

Assay: Shuffled variant libraries: 14CO2 capturing assay in 384-well format
Conditions: decarboxylation activity (carbon dioxide released) compared with unmutated backbone protein SEQ ID NO 133 (DDEC0201)

Molecule | Fold Activity
279 (protein, Dicamba decarboxylase variant) MAQGKVALEEHFAIPETLQDSAGFVPGDYWKELQHRLLDIQDTRLRLMDAHGIETMILSLAAPAVQAIPDRRKAIEIARRANDMLAEECAKRPDRFLAFAALPLQDPDAATEELQRCVNDLGFVGALVNGFSQEGDGQTPLYYDLPQYRPFWGEVEKLDVPFYLHPRNPLPQDSRIYDGHPWLLGPTWAFAQETAVHALRLMASGLFDEHPRLNIILGHLGEGLPYMMYRIDHRIAWVHEPPRYPAKRRFMDYFNENFHITTSGNFRTQTLIDAILEIGADRILFSTDWPFENIDHAADWFNATSIAEADRLKIGRTNARRLFKLDGD | 0.9

Same assay, conditions: decarboxylation activity (carbon dioxide released) compared with unmutated backbone protein SEQ ID NO 380 (DDEC0301)

Molecule | Fold Activity
396 (protein, Dicamba decarboxylase variant) MAQGKVALEEHFAIPETLQDAAGFVPGEYWKELQHRLLDIQDTRLKLMDKHEIETMILSLAAPAVQAIPDRRKAIEIARRANDFLAEEVAKRPDRFLAFAALPLQDPDAATEELQRTVNDLGFVGAMVNGFSQEGDGQTPLYYDLPQYRPFWGEVEKLDVPFYLHPRNPLPQDSRIYDGHPWLLGPTWAFAQETAVHALRLMASGLFDEHPRLNIILGHMGEGLPYMMYRIDHRIGWVKAPPDYAAKRRFMDYFNENFHITTSGNFRTQTLIDAILEIGADRILFSTDWPFENIDHAADWFNATSIAEADRVKIGRTNARRLFKLDGR | 1.9
404 (protein, Dicamba decarboxylase variant) MAQGKVALEEHFAIPETLQDAAGFVPGDYWKELQHRLLDIQDTRLKLMDKHEIETMILSLAAPAVQAIPDRRKAIEIARRANDFLAEEVAKRPDRFLAFAALPLQDPDAATEELQRTVNDLGFVGAMVNGFSQEGDGQTPLYYDLPQYRPFWGEVEKLDVPFYLHPRNPLPQDSRIYDGHPWLLGPTWAFAQETAVHALRLMASGLFDEHPRLNIILGHLGEGLPYMMYRIDHRIGWVKAPPDYPAKRRFMDYFNENFHITTSGNFRTQTLIDAILEIGADRILFSTDWPFENIDHAAAWFNATSIAEADRVKIGRTNARRLFKLDLR | 2.0
405 (protein, Dicamba decarboxylase variant) MAQGKVALEEHFAIPETLQDAAGFVPGDYWKELQHRLLDIQDTRLKLMDKHEIETMILSLAAPAVQAIPDRRKAIEIARRANDFLAEEVAKRPDRFLAFAALPLQDPDAATEELQRCVNDLGFVGAMVNGFSQEGDGQTPLYYDLPQYRPFWGEVEKLDVPFYLHPRNPLPQDSRIYDGHPWLLGPTWAFAQETAVHALRLMASGLFDEHPRLNIILGHMGEGLPYMMYRIDHRIAWVKAPPDYAAKRRFMDYFNENFHITTSGNFRTQTLIDAILEIGADRILFSTDWPFENIDHAADWFNATSIAEADRVKIGRTNARRLFKLDLR | 1.6
398 (protein, Dicamba decarboxylase variant) MAQGKVALEEHFAIPETLQDAAGFVPGDYWKELQHRLLDIQDTRLKLMDKHEIETMILSLAAPAVQAIPDRRKAIEIARRANDFLAEEVAKRPDRFLAFAALPMQDPDAATEELQRCVRDLGFVGALVNGFSQEGDGQTPLYYDLPQYRPFWGEVEKLDVPFYLHPRNPLPQDSRIYDGHPWLLGPTWAFAQETAVHALRLMASGLFDEHPRLNIILGHMGEGLPYMMYRIDHRIGWVKAPPDYAAKRRFMDYFNENFHITTSGNFRTQTLIDAILEIGADRILFSTDWPFENIDHAADWFNATSIAEADRLKIGRTNARRLFKLDLR | 1.0
409 (protein, Dicamba decarboxylase variant) MAQGKVALEEHFAIPETLNDAAGFVPSEYWKELQHRLLDIQDTRLKLMDKHEIGTMILSLAAPAVQAIPDRRKAIEIARRANDFLAEEVAKRPDRFLAFAALPLQDPDAATEELQRCVNDLGFVGAMVNGFSQEGDGQTPLYYDLPQYRPFWGEVEKLDVPFYLHPRNPLPQDSRIYDGHPWLLGPTWAFAQETAVHALRLMASGLFDEHPRLNIILGHMGEGLPYMMYRIDHRIAWVKAPPDYPAKRRFMDYFNENFHITTSGNFRAQTLIDAILEIGADRILFSTDWPFENIDHAADWFNATSIAEADRLKIGRTNARRLFKLDGR | 1.5
402 (protein, Dicamba decarboxylase variant) MAQGKVALEEHFAIPETLQDAAGFVPGDYWKELQHRLLDIQDTRLKLMDKHEIETMILSLAAPAVQAIPDRRKAIEIARRANDFLAEEVAKRPDRFLAFAALPLQDPDAATEELQRTVNDLGFVGALVNGFSQEGDGQTPLYYDLPQYRPFWGEVEKLDVPFYLHPRNPLPQDSRIYDGHPWLLGPTWAFAQETAVHALRLMASGLFDEHPRLNIILGHLGEGLPYMMYRIDHRIAWVKAPPDYAAKRRFMDYFNENFHITTSGNFRTQALIDAILEIGADRILFSTDWPFENIDHAAAWFNATSIAEADRVKIGRTNARRLFKLDLR | 1.0
401 (protein, Dicamba decarboxylase variant) MAQGKVALEEHFAIPETLQDAAGFVPGDYWKELQHRLLDIQDTRLKLMDKHEIETMILSLAAPAVQAIPDRRKAIEIARRANDFLAEEVAKRPDRFLAFAALPLQDPDAATEELQRCVNDLGFVGALVNGFSQEGDGQTPLYYDLPQYRPFWGEVEKLDVPFYLHPRNPLPQDSRIYDGHPWLLGPTWAFAQETAVHALRLMASGLFDEHPRLNIILGHMGEGLPYMMYRIDHRIAWVKAPPDYAAKRRFMDYFNENFHITTSGNFRTQTLIDAILEIGADRILFSTDWPFENIDHAADWFNATSIAEADRLKIGRTNARRLFKLDLR | 1.2
399 (protein, Dicamba decarboxylase variant) MAQGKVALEEHFAIPETLQDAAGFVPGDYWKELQHRLLDIQDTRLKLMDKHEIETMILSLAAPAVQAIPDRRKAIEIARRANDFLAEEVAKRPDRFLAFAALPLQDPDAATEELQRCVNDLGFVGAMVNGFSVEGDGQTPLYYDLPQYRPFWGEVEKLDVPFYLHPRNPLPQDSRIYDGHPWLLGPTWAFAQETAVHALRLMASGLFDEHPRLNIILGHMGEGLPYMMYRIDHRIGWVKAPPDYAAKRRFMDYFNENFHITTSGNFRTQTLIDAILEIGADRILFSTDWPFENIDHAADWFNATSIAEADRVKIGRTNARRLFKLDGR | 1.5
400 (protein, Dicamba decarboxylase variant) MAQGKVALEEHFAIPETLQDAAGFVPGDYWKELQHRLLDIQDTRLKLMDKHEIETMILSLAAPAVQAIPDRRKAIEIARRANDFLAEEVAKRPDRFLAFAALPLQDPDAATEELQRTVNDLGFVGAMVNGFSVEGDGQTPLYYDLPQYRPFWGEVEKLDVPFYLHPRNPLPQDSRIYDGHPWLLGPTWAFAQETAVHALRLMASGLFDEHPRLNIILGHLGEGLPYMMYRIDHRIAWVKAPPDYAAKRRFMDYFNENFHITTSGNFRTQTLIDAILEIGADRILFSTDWPFENIDHAADWFNATSIAEADRLKIGRTNARRLFKLDLR | 1.6
406 (protein, Dicamba decarboxylase variant) MAQGKVALEEHFAIPETLQDAAGFVPGDYWKELQHRLLDIQDQRLKLMDKHEIETMILSLAAPAVQAIPDRRKAIEIARRANDFLAEEVAKRPDRFLAFAALPLQDPDAATEELQRCVNDLGFVGAMVNGFSQEGDGQTPLYYDLPQYRPFWGEVEKLDVPFYLHPRNPLPQDSRIYDGHPWLLGPTWAFAQETAVHALRLMASGLFDEHPRLNIILGHMGEGLPYMMYRIDHRIAWVKAPPDYAAKRRFMDYFNENFHITTSGNFRTQTLIDAILEIGADRILFSTDWPFENIDHAADWFNATSIAEADRVKIGRTNARRLFKLDGR | 1.4
407 (protein, Dicamba decarboxylase variant) MAQGKVALEEHFAIPETLQDAAGFVPGDYWKELQHRLLDIQDTRLKLMDKHEIETMILSLAAPAVQAIPDRRKAIEIARRANDFLAEEVAKRPDRFLAFAALPLQDPDAATEELQRCVNDLGFVGAMVNGFSQEGDGQTPLYYDLPQYRPFWGEVEKLDVPFYLHPRNPLPQDSRIYDGHPWLLGPTWAFAQETAVHALRLMASGLFDEHPGLNIILGHMGEGLPYMMYRIDHRIAWVKAPPDYPAKRRFMDYFNENFHITTSGNFRTQTLIDAILEIGADRILFSTDWPFENIDHAAAWFNATSIAEADRLKIGRTNARRLFKLDGR | 1.8
408 (protein, Dicamba decarboxylase variant) MAQGKVALEEHFAIPETLQDAAGFVPGDYWKELQHRLLDIQDTRLKLMDKHEIGTMILSLAAPAVQAIPDRRKAIEIARRANDFLAEEVAKRPDRFLAFAALPLQDPDAATEELQRCVNDLGFVGAMVNGFSVEGDGQTPLYYDLPQYRPFWGEVEKLDVPFYLHPRNPLPQDSRIYDGHPWLLGPTWAFAQETAVHALRLMASGLFDEHPRLNIILGHMGEGLPYMMYRIDHRIAWVKAPPDYPAKRRFMDYFNENFHITTSGNFRTQTLIDAILEIGADRILFSTDWPFENIDHAAAWFNATPIAEADRVKIGRTNARRLFKLDGR | 0.8
403 (protein, Dicamba decarboxylase variant) MAQGKVALEEHFAIPETLQDAAGFVPGDYWKELQHRLLDIQDTRLKLMDKHEIETMILSLAAPAVQAIPDRRKAIEIARRANDFLAEEVAKRPDRFLAFAALPLQDPDAATEELQRCVNDLGFVGAMVNGFSVEGDGQTPLYYDLPQYRPFWGEVEKLDVPFYLHPRNPLPQDSRIYDGHPWLLGPTWAFAQETAVHALRLMASGLFDEHPRLNIILGHMGEGLPYMMYRIDHRIAWVKAPPDYAAKRRFMDYFNENFHITTSGNFRTQTLIDAILEIGADRILFSTDWPFENIDHAADWFNATSIAEADRLKIGRTNARRLFKLDGR | 1.6
397 (protein, Dicamba decarboxylase variant) MAQGKVALEEHFAIPETLQDAAGFVPGDYWKELQHRLLDIQDTRLKLMDKHEIETMILSLAAPAVQAIPDRRKAIEIARRANDFLAEEVAKRPDRFLAFAALPLQDPDAATEELQRCVNDLGFVGAMVNGFSQEGDGQTPLYYDLPQYRPFWGEVEKLDVPFYLHPRNPLPQDSRIYDGHPWLLGPTWAFAQETAVHALRLMASGLFDEHPRLNIILGHLGEGLPYMMYRIDHRIAWVKAPPDYAAKRRFMDYFNENFHITTSGNFRTQTLIDAILEIGADRILFSTDWPFENIDHAADWFNATSIAEADRVKIGRTNARRLFKLDLR | 1.8
